# From the DeepSol protein solubility set
# Assay: soluble on expression in E. coli; label from the status in PepcDB or PDB records
row,Sequence,soluble on expression in E. coli
1,SLKTPGYPDGPIAIYGDNIFLYSEPTAEEAARFDVVINCAREVSNPFEINKATRRPMSIAEPDTAVSTASFMTAWEFPQGDDSAETPTTPKALQFQEPEYIHIPWDHNTDIAPDLMDLCHVVDDRTKAGKRVLIHCQQGASRSASLIIAYGLFQRPELTVNDAYYAAQAKSQWISPNMKLMYSLQDFQKEVSTKRTAQPSNREG,soluble
2,MSLKVTFEQLKAAFNRVLISRGVDSETADACAEMFARTTESGVYSHGVNRFPRFIQQLENGDIIPDAQPKRITSLGAIEQWDAQRSIGNLTAKKMMDRAIELAADHGIGLVALRNANHWMRGGSYGWQAAEKGYIGICWTNSIAVMPPWGAKECRIGTNPLIVAIPSTPITMVDMSMSMFSYGMLEVNRLAGRQLPVDGGFDDEGNLTKEPGVIEKNRRILPMGYWKGSGMSIVLDMIATLLSDGASVAEVTQDNSDEYGISQIFIAIEVDKLIDGPTRDAKLQRIMDYVTSAERADENQAIRLPGHEFTTLLAENRRNGITVDDSVWAKIQALEGHHHHHH,soluble
3,AGLPRNAVTAVVPSPFHHAEAGVLRVPDLKADPRNAAEHTAAIIRELPELVKGARGSLVLFSSRKQMQEVFDGLDRDWRKRVFIQGNLSKQETLNKHKSRVDDGEDSVLFGLASFAEGVDLPGAYCEHVVIAKIPFAVPDDPVEAALAEWIEARGGNPFMEIAVPDASLRLVQACGRLLRTEQDRGTITLLDRRVVTQRYGKAILNALPPFRREIA,not soluble
4,MLIKRLAFAIMTLVIMTSAGCGFKLQRSYQIPEQLNQLSLSSSDEYSELTRLVRERLRLNNVKIVDAANDVPVLRLITDSLERSTLSLYPTGNVAEYELIYFVEFAVALPGKEAQPFKIEIRRDYLDDPRTALAKSREMELLVKEMRIQAADRILQSMASTEVNLEHHHHHH,soluble
5,MASVSFGGLATGLDSNTLISQLMYLERAPERILESKKSTISSQIDVYTQVTNLLNSFKTLAAGMNTATGFMGKTTSVGDSTVATATSSSIASPGSFNLTVNSLAKNERQVVDQGYASADALNFKTGTFTISGVATPITIAEGQNSLQGIASAINASGANVTASIINDGSANPYRLVITGKDTNNYTLNFSGLTGDPASGSAYTTPTITKSGPTYQAGAAASFSVNGIAITKTSNIVTDVIPGVTLTLLKEGGATTTVTVGNDTSGVTKKINDFVGAYNAAMSQINKQSEYNATTKKGGVLSGDSTLRSVKTQLQNVLTTPVAGITGKYSTLADIGITTDRSNGTLTVDATKLADALGSNFNDVVELFTKNGGVSNLDTEKYGVAEQFRKVIDRFTHAYEGPSSTANGIISSRVRGLNDTIKSIDDQIDAMEVRMERKEEALKKQFTAMETLVSSLTTQGNSLISYLYGS,not soluble
6,MGHHHHHHSHQELASKRVDIQNKRFYLDVKQNAKGRFLKIAEVGAGGNKSRLTLSMSVAVEFRDYLGDFIEHYAQLGPSQPPDLAQAQDEPRRALKSEFLVRENRKYYMDLKENQRGRFLRIRQTVNRGPGLGSTQGQTIALPAQGLIEFRDALAKLIDDYGVEEEPAELPEGTSLTVDNKRFFFDVGSNKYGVFMRVSEVKPTYRNSITVPYKVWAKFGHTFCKYSEEMKKIQEK,not soluble
7,MSPEKQPLPAALVGSHVRAAAGTPADLATDRKFWTGLSRAVQERIADDWERTREAYGAARQQHYFSAEFLMGRALLNNLTNLGLVDEAAAATRELGHELTDILEIENDAALGNGGLGRLAACFLDSAVTQDYPVTGYGLLYRFGLFRQSFNEGFQVEKPDPWREEEYPFTIRRASDQLVVCFDDMKTRAIPYDMPITGYGTHNVGTLRLWKAEPWEEFDYDAFNAQRFTDAIIERERVSDICRVLYPNDTTYEGKKLRVRQQYFFTSASLQAMIQDHLAHHKDLSNFAEFHSVQLNDTHPVLAIPELMRLLMDEHDMGWEESWAIVSKTFAYTNHTVLTEALEQWDEQIFQQLFWRVWEIIAEIDRRFRLERAADGLDEETINRMAPIQHGTVHMAWIACYAAYSINGVAALHTEIIKAETLADWYALWPEKFNNKTNGVTPRRWLRMINPGLSDLLTRLSGSDDWVTDLDELKKLRSYADDKSVLEELRAIKAANKQDFAEWILERQGIEIDPESIFDVQIKRLHEYKRQLMNALYVLDLYFRIKEDGLTDIPARTVIFGAKAAPGYVRAKAIIKLINSIADLVNNDPEVSPLLKVVFVENYNVSPAEHILPASDVSEQISTAGKEASGTSNMKFMMNGALTLGTMDGANVEIVDSVGEENAYIFGARVEELPALRESYKPYELYETVPGLKRALDALDNGTLNDNNSGLFYDLKHSLIHGYGKDASDTYYVLGDFADYRETRDRMAADYASDPLGWARMAWINICESGRFSSDRTIRDYATEIWKLEPTPAVKK,soluble
8,MDPTLYCVVAVDTKLGIGKNRCLPWPALRGDMRRFRQLTTDCAPGKQNMVVMGRRTWLSIPAGCRPLAGRINVVLSRTLETPPPGAHFLASSLDAALGLARSPELAQQIDKVWVIGGGDLYREALTGPWPVRLFLTRVLHDFACDVFLSHDSLAAYARVNPKPGEQERVFQERGIFYMFETYIKVTQSSDTALPDLERPRPATPPFSETS,soluble
9,SNAYSIALIIPSLFEKACAHFLPSFQQALNKAGYQLLLGYSDYSIEQEEKLLSTFLESRPAGVVLFGSEHSQRTHQLLEASNTPVLEIAELSSKASYLNIGVDHFEVGKACTRHLIEQGFKNVGFIGARGNHSTLQRQLHGWQSAMIENYLTPDHFLTTHEAPSSQLGAEGLAKLLLRDSSLNALVCSHEEIAIGALFECHRRVLKVPTDIAIICLEGSSMGEHAYPSLTSAEFDYERMGTKAAEKLLHAIKGEPEERPTSMGFKLKRRASTAIN,soluble
10,MTTAIQYQVIPLADREHSNKVASILENKYKTATNKRITLNERFGVLEKGYTIQATEPETVKNDSDVFFVVHDRNLNSKKEFVENYLAKNPIVNSPEKVFEEEDKENAPTKKAVLKPSSTDEKKLTSSDIYIQEITRSILQSV,not soluble
11,MALMYPFHVAQPPLNWSEHLWVSEVSPAKESFITTICEHRQAQWDNQDLLRHLQDSVAILTREDQRHVNAVHAAANMPANP,not soluble
12,MTTWLYAGVDGGGTGCRARIYQANGTPLGQGHGGRANLLLGVENVRQSVDNAIAQALKHSGLSPDDVSRLKVGLALASAEHRTAYDTFLALPHPYATQVLNTDALGACLAVNQGKDAGVVIAGTGSCGLAWQNQTITAYGGHEFPISDQGSGARLGLAALQHTHDVLQGWRAPSALSQSIDDFFCASAAHALAANTLDALQTFSQQAKPGDYAQFARHVFDCAQQDDAVSHALLAQTASEICLLLAAVARHASPRLSLMGSIGLHIRPWLPDEWQSQLAVPMGDALDGARLIACHDYALYSHPLLEHHHHHH,not soluble
13,MSESVQSNSAVLVHFTLKLDDGTTAESTRNNGKPALFRLGDASLSEGLEQHLLGLKVGDKTTFSLEPDAAFGVPSPDLIQYFSRREFMDAGEPEIGAIMLFTAMDGSEMPGVIREINGDSITVDFNHPLAGQTVHFDIEVLEIDPALEA,soluble
14,MIVLGIESSCDETGLAIYDYSKKKLIADELYSQVKLHKKYGGVVPELASREHIAKLNLLAKKIFKETGLSFEDIDCIAYTAMPGLVGALMVGATFAKTLGLIHNIDTIAVHHLEGHLLSPLLDHNSNIEYPFVALLVSGGHTQLFEVKEFGEYSLLGESIDDAAGEAFDKTTKLLGMGYPGGVEVANLADQATDKSKYILPRPMKNKPNLDFSFSGLKTAVLNTWYDEQDQSLENKANLCYAFQDAAIDVLVSKCAKALQKTKNTRLVISGGVSANKLLRHQLDLLAKNRGYQIFFPPMKYCTDNGAMIALAGAYRYVNGFKDSNLEINVKARSPL,soluble
15,EQTALKKVAEMARLADSYVSAWGDEAKVSDETLRRLLTSLGYDTSSDEKLLASAEKKHKKDVLAPVLVLRDGEPVEVELNLGTSARESEFSWRLETEQGEVLEGYLQSQIVRDERAEGGPLVFALPKNLAWGYHKLIISRKRRKTPYEMSLIITPKACFKQEDLNQ,not soluble
16,SGMYKIILNQTARYFAKFAPDNEQNILWGLPLQYGWQYRTGRLADPTRRTNCGYESGDHMCISVDSWWADLNYFLSSLPFLAAVDSGVMGISSDQVRLLPPPKNERKFCYDVSSCRSSFPETMNKWNTFYQYLQSPFSKFDDLLKYLWAAHTSTLADNIKSFEDRYDYYSKAEAHFERSWVLAVDHLAAVLFPTTLIRSYKFQKGMPPRILLNTDVAPFISDFTAFQNVVLVLLNMLDNVDKSIGYLCTEKSNVYRDHSESSSRSYGNNS,not soluble
